T1: PARC6^685–819 as part of the PARC6^685–819–PDV1^263–272 fusion protein (Arabidopsis thaliana, UniProt Q8VY16 685-819)
T1 sequence (looked up): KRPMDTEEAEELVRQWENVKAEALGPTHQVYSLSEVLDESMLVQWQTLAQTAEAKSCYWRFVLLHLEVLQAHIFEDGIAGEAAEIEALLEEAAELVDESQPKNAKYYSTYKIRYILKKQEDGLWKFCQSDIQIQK


Assays:
[1] = target: the molecule itself; test: SEC-MALS
[2] = target: T1, PARC6^685–819 as part of the …; test: crystal structure

| Binder | stoichiometry N [1] | binding result [2] |
| --- | --- | --- |
| PARC6^640–819 (PARC6C), C-terminal domain of PARALOG OF ARC6 (domain or fragment, Arabidopsis thaliana, UniProt Q8VY16 640-819, looked up, intramolecular disulfide bond C657-C741 under oxidized conditions) NGIVGNIKVLIDMLKMHCGEHPDALYLKSSGQSATSLSHSASELHKRPMDTEEAEELVRQWENVKAEALGPTHQVYSLSEVLDESMLVQWQTLAQTAEAKSCYWRFVLLHLEVLQAHIFEDGIAGEAAEIEALLEEAAELVDESQPKNAKYYSTYKIRYILKKQEDGLWKFCQSDIQIQK | 2 |  |
| DHLDVMMARG (peptide, UniProt Q9FK13 263-272, looked up) [PDV1C (PDV1^263–272) as part of the PARC6^685–819–PDV1^263–272 fusion protein] |  | binds |

— publication PMC9945983 (Proceedings of the National Academy of Sciences of the …, 2023)
